This note sets out measurements from patent US20150329594A1 (University of California, published 2015).

The chains are these.
B1: Peptide 3.1, Ac-ER-ICVWQDWGAHRCT-NH2 (peptide)
peptide: Ac-ERICVWQDWGAHRCT-NH2
modifications: disulfide 4-14
SMILES: CC[C@H](C)[C@H](NC(=O)[C@H](CCCNC(=N)N)NC(=O)[C@H](CCC(=O)O)NC(C)=O)C(=O)N[C@H]1CSSC[C@@H](C(=O)N[C@H](C(N)=O)[C@@H](C)O)NC(=O)[C@H](CCCNC(=N)N)NC(=O)[C@H](Cc2c[nH]cn2)NC(=O)[C@H](C)NC(=O)CNC(=O)[C@H](Cc2c[nH]c3ccccc23)NC(=O)[C@H](CC(=O)O)NC(=O)[C@H](CCC(N)=O)NC(=O)[C@H](Cc2c[nH]c3ccccc23)NC(=O)[C@H](C(C)C)NC1=O
B2: Peptide 3.3, Ac-NR-LCVWQDWGAHRCT-NH2 (peptide)
peptide: Ac-NRLCVWQDWGAHRCT-NH2
modifications: disulfide 4-14
SMILES: CC(=O)N[C@@H](CC(N)=O)C(=O)N[C@@H](CCCNC(=N)N)C(=O)N[C@@H](CC(C)C)C(=O)N[C@H]1CSSC[C@@H](C(=O)N[C@H](C(N)=O)[C@@H](C)O)NC(=O)[C@H](CCCNC(=N)N)NC(=O)[C@H](Cc2c[nH]cn2)NC(=O)[C@H](C)NC(=O)CNC(=O)[C@H](Cc2c[nH]c3ccccc23)NC(=O)[C@H](CC(=O)O)NC(=O)[C@H](CCC(N)=O)NC(=O)[C@H](Cc2c[nH]c3ccccc23)NC(=O)[C@H](C(C)C)NC1=O
B3: Peptide 3.2, Ac-NN-LCVWQDWGAHRCT-NH2 (peptide)
peptide: Ac-NNLCVWQDWGAHRCT-NH2
modifications: disulfide 4-14
SMILES: CC(=O)N[C@@H](CC(N)=O)C(=O)N[C@@H](CC(N)=O)C(=O)N[C@@H](CC(C)C)C(=O)N[C@H]1CSSC[C@@H](C(=O)N[C@H](C(N)=O)[C@@H](C)O)NC(=O)[C@H](CCCNC(=N)N)NC(=O)[C@H](Cc2c[nH]cn2)NC(=O)[C@H](C)NC(=O)CNC(=O)[C@H](Cc2c[nH]c3ccccc23)NC(=O)[C@H](CC(=O)O)NC(=O)[C@H](CCC(N)=O)NC(=O)[C@H](Cc2c[nH]c3ccccc23)NC(=O)[C@H](C(C)C)NC1=O

Bridge positions count the residues as written; N and C are the ends. Square brackets hold non-standard residues; d marks the D form. Nal = 1-naphthylalanine or 2-naphthylalanine; Trp(1-Me) = Cn1cc(C[C@H](N)C(=O)O)c2ccccc21; Aal = not defined here; Sea = not defined here

The target of this experiment is human complement protein C3 (human, UniProt P01024 23-1663). In words: cell-based or functional assay.
Sequence of human complement protein C3 (P01024 23-1663 limits assumed): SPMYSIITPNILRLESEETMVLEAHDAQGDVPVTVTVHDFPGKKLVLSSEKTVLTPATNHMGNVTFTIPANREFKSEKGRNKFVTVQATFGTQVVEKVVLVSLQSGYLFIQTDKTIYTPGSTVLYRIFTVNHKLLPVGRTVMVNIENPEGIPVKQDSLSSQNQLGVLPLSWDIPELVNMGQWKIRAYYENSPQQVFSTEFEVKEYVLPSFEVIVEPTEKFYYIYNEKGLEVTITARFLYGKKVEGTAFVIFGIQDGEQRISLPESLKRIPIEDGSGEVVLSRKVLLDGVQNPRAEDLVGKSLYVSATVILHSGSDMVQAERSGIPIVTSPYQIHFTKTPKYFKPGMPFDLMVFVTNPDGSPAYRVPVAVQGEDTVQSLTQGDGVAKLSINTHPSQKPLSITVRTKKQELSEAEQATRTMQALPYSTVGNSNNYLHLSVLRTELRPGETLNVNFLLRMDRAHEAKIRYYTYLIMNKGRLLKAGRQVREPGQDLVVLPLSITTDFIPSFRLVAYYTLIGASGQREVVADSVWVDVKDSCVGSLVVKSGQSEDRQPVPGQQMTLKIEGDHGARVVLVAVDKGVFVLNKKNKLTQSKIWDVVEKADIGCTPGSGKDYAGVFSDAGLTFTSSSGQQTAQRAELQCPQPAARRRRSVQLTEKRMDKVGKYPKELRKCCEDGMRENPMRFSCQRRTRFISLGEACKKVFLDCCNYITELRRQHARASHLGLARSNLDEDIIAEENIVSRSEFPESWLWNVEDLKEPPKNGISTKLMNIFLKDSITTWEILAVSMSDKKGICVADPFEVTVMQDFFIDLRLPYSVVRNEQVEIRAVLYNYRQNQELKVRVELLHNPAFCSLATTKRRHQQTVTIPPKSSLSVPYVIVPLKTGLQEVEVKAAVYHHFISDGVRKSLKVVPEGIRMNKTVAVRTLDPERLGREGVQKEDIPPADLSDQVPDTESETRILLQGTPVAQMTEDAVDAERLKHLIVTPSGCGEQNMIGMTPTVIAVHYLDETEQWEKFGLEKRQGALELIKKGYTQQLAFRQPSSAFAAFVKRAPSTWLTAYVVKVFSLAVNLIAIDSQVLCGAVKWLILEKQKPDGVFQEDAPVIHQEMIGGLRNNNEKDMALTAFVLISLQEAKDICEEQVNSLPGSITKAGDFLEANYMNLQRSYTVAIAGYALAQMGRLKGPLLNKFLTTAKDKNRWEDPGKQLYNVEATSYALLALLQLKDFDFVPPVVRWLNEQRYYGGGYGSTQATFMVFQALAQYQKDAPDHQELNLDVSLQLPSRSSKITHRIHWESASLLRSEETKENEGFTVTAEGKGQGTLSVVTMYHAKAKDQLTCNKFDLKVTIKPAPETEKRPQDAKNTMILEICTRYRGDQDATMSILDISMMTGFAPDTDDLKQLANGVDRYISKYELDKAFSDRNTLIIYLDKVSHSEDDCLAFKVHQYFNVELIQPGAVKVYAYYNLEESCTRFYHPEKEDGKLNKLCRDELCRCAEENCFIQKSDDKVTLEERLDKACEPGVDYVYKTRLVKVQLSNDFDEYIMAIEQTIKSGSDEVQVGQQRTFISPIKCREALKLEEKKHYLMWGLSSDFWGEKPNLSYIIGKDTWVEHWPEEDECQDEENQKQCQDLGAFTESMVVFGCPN
For the molecule Ac-RSICV[Nal]QDWG[Nal]HRCT-NH2 (disulfide 4-14; not fully specified; printed as Ac-RSICV{Nal}QDWG{Nal}HRCT-NH2) [Peptide 4.8, Ac-RS-ICV{Nal}QDWG{Nal}HRCT-NH2], the “C3b ELISA IC50” value is 4100 nM, the “C5b-9 ELISA IC50” value came to 2400 nM and the “Lysis IC50” value amounted to 2800 nM.
The corresponding values for Ac-RSICVWQDWG[Nal]HRCT-NH2 (disulfide 4-14; not fully specified; printed as Ac-RS-ICVWQDWG{Nal}HRCT-NH2) [Peptide 4.4, Ac-RS-ICVWQDWG{Nal}HRCT-NH2] are 3100 nM, 2000 nM and 1800 nM.
Take B1: the “C3b ELISA IC50” value was determined as 900 nM, the “C5b-9 ELISA IC50” value is 500 nM and the “Lysis IC50” value was determined as 900 nM.
For the molecule B2, the “C3b ELISA IC50” value worked out at 600 nM, the “C5b-9 ELISA IC50” value is 500 nM and the “Lysis IC50” value turned out to be 300 nM.
For B3, the “C3b ELISA IC50” value came to 600 nM, the “C5b-9 ELISA IC50” value is 500 nM and the “Lysis IC50” value stood at 300 nM.
For Ac-ERICV[Nal]QDWG[Nal]HRCT-NH2 (disulfide 4-14; not fully specified; printed as Ac-ERICV{Nal}QDWG{Nal}HRCT-NH2) [Peptide 4.5, Ac-ER-ICV{Nal}QDWG{Nal}HRCT-NH2], the “C3b ELISA IC50” value was 3800 nM, the “C5b-9 ELISA IC50” value stood at 2400 nM and the “Lysis IC50” value worked out at 3000 nM.
Ac-NNLCVWQDWG[Nal]HRCT-NH2 (disulfide 4-14; not fully specified; printed as Ac-NN-LCVWQDWG{Nal}HRCT-NH2) [Peptide 4.2, Ac-NN-LCVWQDWG{Nal}HRCT-NH2]: the “C3b ELISA IC50” value was 2900 nM, the “C5b-9 ELISA IC50” value amounted to 1900 nM and the “Lysis IC50” value is 2100 nM.
With Ac-ICVWQDWG[Aal]HRCT-NH2 (disulfide 2-12; reading uncertain; also: printed as Ac-ICVWQDWG{Aal}HRCT-NH2) [Peptide 2.4, Ac-ICVWQDWG{Aal}HRCT-NH2], the “C3b ELISA IC50” value amounted to 900 nM, the “C5b-9 ELISA IC50” value came out at 800 nM and the “Lysis IC50” value came to 700 nM.
The corresponding values for Ac-ICVWQDWG[Nal]HRCT-NH2 (disulfide 2-12; not fully specified; printed as Ac-ICVWQDWG{Nal}HRCT-NH2) [Peptide 2.2, Ac-ICVWQDWG{Nal}HRCT-NH2] are 2400 nM, 2000 nM and 1400 nM.
With Ac-ERICVWQDWG[Nal]HRCT-NH2 (disulfide 4-14; not fully specified; printed as Ac-ER-ICVWQDWG{Nal}HRCT-NH2) [Peptide 4.1, Ac-ER-ICVWQDWG{Nal}HRCT-NH2], the “C3b ELISA IC50” value is 3000 nM, the “C5b-9 ELISA IC50” value was determined as 1800 nM and the “Lysis IC50” value was 2300 nM.
With Ac-ICVWQDWG[Sea]HRCT-NH2 (disulfide 2-12; reading uncertain; also: printed as Ac-ICVWQDWG{Sea}HRCT-NH2) [Peptide 2.5, Ac-ICVWQDWG{Sea}HRCT-NH2], the “C3b ELISA IC50” value is 600 nM, the “C5b-9 ELISA IC50” value was 700 nM and the “Lysis IC50” value was 500 nM.
Ac-RSICVWQDWGAHRCT-NH2 (disulfide 4-14) [Peptide 3.4, Ac-RS-ICVWQDWGAHRCT-NH2]: the “C3b ELISA IC50” value turned out to be 700 nM, the “C5b-9 ELISA IC50” value stood at 600 nM and the “Lysis IC50” value is 300 nM.
The corresponding values for Ac-NRLCVWQDWG[Nal]HRCT-NH2 (disulfide 4-14; not fully specified; printed as Ac-NR-LCVWQDWG{Nal}HRCT-NH2) [Peptide 4.3, Ac-NR-LCVWQDWG{Nal}HRCT-NH2] are 2000 nM, 1200 nM and 1200 nM.
The corresponding values for Ac-ICV[Trp(1-Me)]QDWG[Nal]HRCT-NH2 (disulfide 2-12; not fully specified; printed as Ac-ICV{meW}QDWG{Nal}HRCT-NH2) [Peptide 2.1, Ac-ICVmeWQDWG{Nal}HRCT-NH2] are 1400 nM, 900 nM and 900 nM.
Turning to Ac-NNLCV[Nal]QDWG[Nal]HRCT-NH2 (disulfide 4-14; not fully specified; printed as Ac-NNLCV{Nal}QDWG{Nal}HRCT-NH2) [Peptide 4.6, Ac-NN-LCV{Nal}QDWG{Nal}HRCT-NH2], the “C3b ELISA IC50” value came out at 3900 nM, the “C5b-9 ELISA IC50” value worked out at 2300 nM and the “Lysis IC50” value amounted to 2200 nM.
On to Ac-NRLCV[Nal]QDWG[Nal]HRCT-NH2 (disulfide 4-14; not fully specified; printed as Ac-NRLCV{Nal}QDWG{Nal}HRCT-NH2) [Peptide 4.7, Ac-NR-LCV{Nal}QDWG{Nal}HRCT-NH2], for which the “C3b ELISA IC50” value was found to be 2300 nM, the “C5b-9 ELISA IC50” value was 1400 nM and the “Lysis IC50” value stood at 1300 nM.
